US20070016969

Molecular target: hirudin in milk of BC1-GB-Hir transgenic mice (UniProt P01050)
Sequence (P01050 whole entry): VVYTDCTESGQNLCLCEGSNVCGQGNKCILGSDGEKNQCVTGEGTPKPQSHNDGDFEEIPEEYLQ

## thrombin (thrombin solution, 50 U/ml)
  anti-coagulation activity (chromogenic thrombin substrate Tos-Gly-Pro-Arg-4-NA, A405): milk collected from lactating transgenic mice of the invention has a high level of anti-coagulation activity in comparison with that from non-transgenic mice (normal mouse milk)
